According to paper PMC6395645:

Tests used:
soluble type-I collagen [1] = molecular target: soluble type-I collagen (UniProt P02454); test: ELISA; collagen-binding ELISA; soluble type-I collagen immobilised on plates, saliva of 20 TG mosquitoes (holds mDsRed-8H7scFv) applied 1 h at room temperature; quantified against Trx-AAPPex1-4
soluble type-I collagen [2] = molecular target: soluble type-I collagen (UniProt P02454); test: ELISA; collagen-binding ELISA; soluble type-I collagen immobilised on plates, salivary gland homogenates of 20 TG mosquitoes (hold mDsRed-8H7scFv) applied 1 h at room temperature; quantified against Trx-AAPPex1-4
soluble type-I collagen [3] = molecular target: soluble type-I collagen (UniProt P02454); test: ELISA; collagen-binding ELISA; soluble type-I collagen immobilised on plates (7.5 ug/ml, 100 ul/well), saliva of 20 WT mosquitoes applied 1 h at room temperature; quantified against Trx-AAPPex1-4
soluble type-I collagen [4] = molecular target: soluble type-I collagen (UniProt P02454); test: ELISA; collagen-binding ELISA; soluble type-I collagen immobilised on plates, salivary gland homogenates of 20 WT mosquitoes applied 1 h at room temperature; quantified against Trx-AAPPex1-4

Sequence of soluble type-I collagen (P02454 152-1207, chain 1 of 2): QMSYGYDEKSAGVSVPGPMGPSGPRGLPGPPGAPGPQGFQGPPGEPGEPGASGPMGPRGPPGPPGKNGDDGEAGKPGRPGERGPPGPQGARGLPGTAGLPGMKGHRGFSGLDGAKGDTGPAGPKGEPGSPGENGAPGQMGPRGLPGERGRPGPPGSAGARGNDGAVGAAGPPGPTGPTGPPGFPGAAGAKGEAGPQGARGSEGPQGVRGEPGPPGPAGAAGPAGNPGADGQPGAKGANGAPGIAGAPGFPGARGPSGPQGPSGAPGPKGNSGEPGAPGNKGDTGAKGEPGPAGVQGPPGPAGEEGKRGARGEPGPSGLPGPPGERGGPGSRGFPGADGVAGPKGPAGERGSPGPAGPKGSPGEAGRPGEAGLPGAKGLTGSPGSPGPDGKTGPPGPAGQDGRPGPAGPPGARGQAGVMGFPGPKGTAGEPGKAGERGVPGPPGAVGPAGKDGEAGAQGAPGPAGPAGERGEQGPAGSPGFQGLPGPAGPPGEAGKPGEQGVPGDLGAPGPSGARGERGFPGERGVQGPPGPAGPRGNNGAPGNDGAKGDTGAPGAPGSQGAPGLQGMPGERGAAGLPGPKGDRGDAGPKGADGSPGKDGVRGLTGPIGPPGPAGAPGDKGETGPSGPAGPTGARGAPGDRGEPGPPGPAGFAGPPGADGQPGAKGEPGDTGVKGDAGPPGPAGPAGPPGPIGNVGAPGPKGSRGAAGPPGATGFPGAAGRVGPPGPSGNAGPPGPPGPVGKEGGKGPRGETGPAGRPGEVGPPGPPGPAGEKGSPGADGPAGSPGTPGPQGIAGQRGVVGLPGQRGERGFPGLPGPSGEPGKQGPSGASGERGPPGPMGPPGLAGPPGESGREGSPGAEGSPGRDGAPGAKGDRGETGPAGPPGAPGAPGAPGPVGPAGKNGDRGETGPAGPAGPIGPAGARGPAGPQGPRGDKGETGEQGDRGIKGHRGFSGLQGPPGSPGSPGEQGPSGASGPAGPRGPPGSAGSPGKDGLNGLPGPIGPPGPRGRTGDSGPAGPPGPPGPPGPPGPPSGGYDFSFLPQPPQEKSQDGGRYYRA
Sequence of soluble type-I collagen (P02466 86-1125, chain 2 of 2, further chain): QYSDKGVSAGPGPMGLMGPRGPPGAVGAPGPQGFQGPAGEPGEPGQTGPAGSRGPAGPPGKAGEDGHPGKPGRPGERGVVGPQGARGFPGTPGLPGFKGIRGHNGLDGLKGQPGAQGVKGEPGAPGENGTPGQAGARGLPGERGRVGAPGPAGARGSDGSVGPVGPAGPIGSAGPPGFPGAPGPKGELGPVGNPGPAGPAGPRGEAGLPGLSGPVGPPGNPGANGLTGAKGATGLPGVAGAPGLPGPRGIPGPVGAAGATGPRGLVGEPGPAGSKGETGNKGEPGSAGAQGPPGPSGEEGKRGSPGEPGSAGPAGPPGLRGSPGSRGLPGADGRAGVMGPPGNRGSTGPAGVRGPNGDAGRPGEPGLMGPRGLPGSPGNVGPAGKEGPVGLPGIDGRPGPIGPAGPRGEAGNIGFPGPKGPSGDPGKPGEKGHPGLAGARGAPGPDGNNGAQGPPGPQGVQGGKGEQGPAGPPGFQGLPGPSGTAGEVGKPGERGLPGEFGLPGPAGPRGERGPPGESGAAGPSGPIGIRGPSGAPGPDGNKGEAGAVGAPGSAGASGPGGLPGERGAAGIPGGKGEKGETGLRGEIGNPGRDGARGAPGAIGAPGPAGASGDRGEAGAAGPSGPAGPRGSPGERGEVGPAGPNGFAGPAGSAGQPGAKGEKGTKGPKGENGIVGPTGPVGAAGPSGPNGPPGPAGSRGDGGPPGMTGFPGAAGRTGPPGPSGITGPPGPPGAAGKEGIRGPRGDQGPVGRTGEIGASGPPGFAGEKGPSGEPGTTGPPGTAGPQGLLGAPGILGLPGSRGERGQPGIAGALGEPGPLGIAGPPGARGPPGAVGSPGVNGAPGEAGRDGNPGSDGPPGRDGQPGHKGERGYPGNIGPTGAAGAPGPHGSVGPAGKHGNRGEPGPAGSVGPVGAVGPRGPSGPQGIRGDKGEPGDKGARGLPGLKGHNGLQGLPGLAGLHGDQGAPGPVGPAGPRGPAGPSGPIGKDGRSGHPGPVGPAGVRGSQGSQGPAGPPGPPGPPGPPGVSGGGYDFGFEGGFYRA

## Anopheline antiplatelet protein (AAPP) (from UniProt Q7YT37 20-269) (natural protein)
Soluble type-I collagen [1]
  amount of AAPP capable of binding to collagen, with mDsRed-8H7scFv present (saliva of 20 mosquitoes of each TG line): < 0.069 ng
Soluble type-I collagen [2]
  amount of AAPP capable of binding to collagen, with mDsRed-8H7scFv present (salivary glands of 20 TG-03 mosquitoes): 11.4 ng
  amount of AAPP capable of binding to collagen, with mDsRed-8H7scFv present (salivary glands of 20 TG-30 mosquitoes): 9.95 ng
  amount of AAPP capable of binding to collagen, with mDsRed-8H7scFv present (salivary glands of 20 TG-37 mosquitoes): 10.5 ng
Soluble type-I collagen [3]
  amount of AAPP capable of binding to collagen (saliva of 20 WT mosquitoes): 28.4 ng
Soluble type-I collagen [4]
  amount of AAPP capable of binding to collagen (salivary glands of 20 WT mosquitoes): 233 ng
